Ends that are not written are not given here.
Columns and labels:
recombinant Cc = experiment: Cc pulldown assay with HEK293T extracts; format: binding; conditions: HEK293T extracts expressing ANP32A-c-myc, Western blot
Protocol: Pulldown assays were performed as previously described.^[ [31] ^] Briefly, transfected HEK293T cells were resuspended in a lysis buffer containing 10 mM Tricine‐NaOH pH 8.5, 1 mM PMSF, and cOmplete protease inhibitors (Roche). Afterward, cells were lysed by sonication (10 s, 10% amplitude, on ice), and the resulting debris was discarded after 15 min of centrifugation at 13300 rpm and 4 °C. More details on the procedure were given in the Supporting Information Appendix.
Pulldown assays were performed as previously described ^[6^]. Briefly, transfected HEK293T cells were resuspended in a lysis buffer containing 10 mM Tricine-NaOH pH 8.5, 1 mM PMSF and cOmplete™ protease inhibitors (Roche). Afterwards, cells were lysed by sonication (10 s, 10% amplitude, on ice), and the resulting debris was discarded after 15 min of centrifugation at 13,300 rpm and 4 °C.
Cc pulldown assays were carried out by incubating cell extracts with 100 µg of recombinant Cc for 16 h at 4 °C in batch. A carboxymethylcellulose matrix (Whatman) was added, and the mixture was incubated for 30 min at 4 °C in batch. To remove possible non-specific binding, the matrix was washed 3 times with 1 mL of washing buffer containing 10 mM Tricine-NaOH pH 8.5, 20 mM NaCl, 1 mM PMSF and cOmplete™ protease inhibitors. […]

15N-labeled Cc = experiment: NMR titration (1H-15N HSQC) of 15N Cc with ANP32A or ANP32A1-167; format: binding; conditions: low ionic strength; 25 °C
Protocol: NMR titrations of 30 µM ^15N reduced Cc with ^14N ANP32A constructs were followed by 1D ^1H and 2D ^1H-^15N heteronuclear single quantum correlation (HSQC) spectra on a Bruker Avance-III 600 MHz equipped with a cryoprobe at 25 °C. ^15N-labelled reduced Cc (in 10 mM sodium phosphate buffer, pH 7.4) was titrated with increasing amounts of ^14N ANP32A dialyzed against the same buffer. Reduced ^15N Cc and ^14N ANP32A1-167 construct were titrated in 5 mM sodium phosphate buffer pH 6.4. To maintain the redox state of Cc and to adjust the lock signal on the NMR spectrometer, 0.1 mM of sodium ascorbate and 10% of D2O were added, respectively. Data were acquired and processed using TopSpin NMR 3.5pl7 software (Bruker).
Line broadening and chemical-shift perturbation analysis were performed using the Sparky 3 NMR assignment tool (T.D. Goddard and D.G. Kneller, University of California San Francisco, USA). Assignment of ANP32A230-249 and ANP32B232-251 peptides was performed using NMRFAM-SPARKY software distribution (National Magnetic Resonance Facility at Madison) and further imported to CCPNMR ^[1], whereby distance restraints were calculated using its built-in module.

cytochrome c [1] = biological target: T1, cytochrome c (Homo sapiens, UniProt P99999); experiment: ITC titration of full-length ANP32A or ANP32A1-167 with reduced Cc; format: binding; conditions: for Kd: relative error 20%; for n (reaction stoichiometry): error 0.03; for ΔG: error 0.1 kcal/mol
T1 construct: obtained by immunizing male rabbits with full-length recombinant Cc; made in house; host or cells: E. coli BL21 (DE3)
T1 sequence (P99999 whole entry): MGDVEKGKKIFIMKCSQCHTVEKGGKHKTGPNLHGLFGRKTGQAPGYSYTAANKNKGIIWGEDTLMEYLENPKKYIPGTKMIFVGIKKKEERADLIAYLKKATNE
Protocol: Isothermal titration calorimetry (ITC) experiments were performed using a Nano ITC Low Volume instrument (TA Instruments, USA). The reference cell was filled with distilled water. Titration experiments between reduced Cc and ANP32A or ANP32A1‐167 consisted of 17 injections of 2.91 µL of a 400 µM reduced Cc solution into the sample cell containing 50 µM ANP32A construct. Both Cc and ANP32A proteins were dialyzed against 10 mM sodium phosphate buffer pH 7.4. Assays performed at moderate ionic strength used the same experimental setup, but proteins were dialyzed against 20 mM sodium phosphate pH 7.4 with 50 mM NaCl. Assays using ANP32A230‐249 or ANP32B232‐251 peptides were performed by titrating 1 mM peptide solution onto 110 or 150 µM reduced Cc solutions, respectively, or onto 100 µM HuR106‐326 solution, following the same injection configuration as described for ANP32A proteins. Cc and HuR106‐326 solutions were dialyzed against 10 mM sodium phosphate buffer pH 6.3; peptides were dissolved in the same solution. The stirring speed was set to 200 rpm for HuR106‐326 titration experiments and to 300 rpm for Cc titration experiments, to ensure cell homogeneity. ANP32A, ANP32A230‐249 and ANP32B232‐251 titration data were analyzed using Origin 7.0 (OriginLab), employing a single‐ligand binding site model or a two‐ligand binding sites model. In the last case, no binding cooperativity was observed. ANP32A1‐167 titration data was processed and analyzed using NanoAnalyze software (TA instruments).
ITC experiments were performed using a Nano ITC Low Volume instrument (TA Instruments, USA). The reference cell was filled with distilled water. Titration experiments between reduced Cc and ANP32A or ANP32A1-167 consisted of 17 injections of 2.91 µL of a 400 µM reduced Cc solution into the sample cell containing 50 µM ANP32A construct. Both Cc and ANP32A proteins were dialyzed against 10 mM sodium phosphate buffer pH 7.4. Assays performed at moderate ionic strength used the same experimental setup, but proteins were dialyzed against 20 mM sodium phosphate pH 7.4 with 50 mM NaCl. Assays using ANP32A230-249 and ANP32B232-251 peptides were performed by titrating 1 mM peptide solution onto 110 or 150 µM reduced Cc solutions, respectively, or onto 100 µM HuR106-326 solution, following the same injection configuration as described for ANP32A proteins. Cc and HuR106-326 solutions were dialyzed against 10 mM sodium phosphate buffer pH 6.3; peptides were dissolved in the same solution. The stirring speed was set to 200 rpm for HuR106-326 titration experiments and to 300 rpm for Cc titration experiments, to ensure cell homogeneity. ANP32A, ANP32A230-249 and ANP32B232-251 titration data was analyzed using Origin 7.0 (OriginLab), employing a single ligand binding site model or a two ligand binding sites model. In the last case, no binding cooperativity was observed. ANP32A1-167 titration data were processed and analyzed using NanoAnalyze software (TA instruments).

histone H3 = experiment: Coimmunoprecipitation of c-myc-ANP32A/B with histone H3; format: binding; conditions: anti-c-myc, Western blot; representative of three experiments
Protocol: HEK293T cells were transfected with a plasmid encoding ANP32A/b-c-myc. 24 h after transfection, cells were collected for lysates preparation in buffer containing 20 mM Tris-HCl pH 7.5, 100 mM NaCl, 0.5% NP40, 0.1 mM PMSF and cOmplete™. Cells were lysed by sonication and precleared by incubation with sepharose-A beads (GE Healthcare, GE17-5280-01) for 1 h at 4 °C. The lysates were then incubated with anti-c-myc (see Pull-down assays) over night at 4 °C and subsequently with sepharose-A beads (GE Healthcare, GE17-5280-01) for 1 h at room temperature with rotation. Following 6 washes with PBS, the samples were resuspended in SDS loading buffer and analyzed by western blotting.

[2] = tested on: Heltog cells (HeLa cells constitutively expressing Cc-GFP); experiment: Subcellular localization of Cc-GFP and ANP32A in Heltog cells after camptothecin; format: cell-based; conditions: 20 µM CPT, 1 or 4 h, confocal microscopy
Protocol: After 1 h or 4 h of CPT treatment, nuclei were stained by incubating cells with 1 µg mL^−1 Hoechst (Sigma‐Aldrich) for 10 min at 37 °C. Cells were then rinsed in pre‐warmed PBS at 37 °C to remove media traces, fixed by immersing the coverslips in a 4% formaldehyde (Sigma‐Aldrich) solution prepared in PBS for 10 min at room temperature, and then washed in pre‐warmed PBS at 37 °C. Cells were dried by incubating the coverslips in absolute ethanol for 2 min. Afterward, coverslips were mounted into glass slides using N‐propyl gallate (Sigma‐Aldrich), to preserve the fluorescence, and sealed with nail polish. Images were obtained in a Zeiss LSM 7 DUO confocal microscope using a 63× oil objective. For calcium phosphate transfection, 2.5 × 10^6 HEK293T cells were cultured in 150 mm diameter plates. After 72 h of growth, media was refreshed prior to transfection. For subcellular localization assays; 50,000 Heltog cells were grown over coverslips placed in 15.6 mm well plates for 24 h before transfection. DNA damage was then induced by replacing media for one containing 20 µM of camptothecin (CPT) and incubating cells for 1 h or 4 h. […] Afterwards, coverslips were mounted into glass slides using N-propyl gallate (Sigma-Aldrich), to preserve the fluorescence, and sealed with nail polish. […]

cytochrome c [3] = biological target: T1, cytochrome c; experiment: ITC titration of ANP32A/B C-terminal peptides with reduced Cc; conditions: single binding-site model; 1 mM peptide onto 110 or 150 µM reduced Cc; 10 mM sodium phosphate pH 6.3; relative error 20%
Protocol: Isothermal titration calorimetry (ITC) experiments were performed using a Nano ITC Low Volume instrument (TA Instruments, USA). The reference cell was filled with distilled water. Titration experiments between reduced Cc and ANP32A or ANP32A1‐167 consisted of 17 injections of 2.91 µL of a 400 µM reduced Cc solution into the sample cell containing 50 µM ANP32A construct. Both Cc and ANP32A proteins were dialyzed against 10 mM sodium phosphate buffer pH 7.4. Assays performed at moderate ionic strength used the same experimental setup, but proteins were dialyzed against 20 mM sodium phosphate pH 7.4 with 50 mM NaCl. […] ANP32A, ANP32A230‐249 and ANP32B232‐251 titration data were analyzed using Origin 7.0 (OriginLab), employing a single‐ligand binding site model or a two‐ligand binding sites model. […] ANP32A1‐167 titration data was processed and analyzed using NanoAnalyze software (TA instruments).
ITC experiments were performed using a Nano ITC Low Volume instrument (TA Instruments, USA). […] ANP32A, ANP32A230-249 and ANP32B232-251 titration data was analyzed using Origin 7.0 (OriginLab), employing a single ligand binding site model or a two ligand binding sites model. […] ANP32A1-167 titration data were processed and analyzed using NanoAnalyze software (TA instruments).

[4] = low ionic strength 25 mM, first listed of two independent sites, 10 mM sodium phosphate pH 7.4
[5] = low ionic strength 25 mM, second listed of two independent sites, 10 mM sodium phosphate pH 7.4
[6] = moderate ionic strength 100 mM, single site, 20 mM sodium phosphate pH 7.4, 50 mM NaCl
[7] = moderate ionic strength 100 mM, single site, 20 mM sodium phosphate pH 7.4, 50 mM NaCl, error 0.4 kcal/mol

## ANP32A: full-length recombinant acidic leucine‐rich nuclear phosphoprotein 32 A, histone chaperone
Recombinant Cc
  Cc pulldown result, in words: Cc interacts with ANP32A
15N-labeled Cc
  chemical-shift perturbations of Cc amide signals, in words: specific chemical‐shift perturbations and substantial broadening
Cytochrome c [1]; low ionic strength 25 mM, first listed of two independent sites, 10 mM sodium phosphate pH 7.4, 400 µM reduced Cc into 50 µM ANP32A
  Kd: 3.6 µM
Cytochrome c [1]; [4]
  n (reaction stoichiometry): 0.65
  ΔG: -7.4 kcal/mol
Cytochrome c [1]; low ionic strength 25 mM, first listed of two independent sites, 10 mM sodium phosphate pH 7.4, error 0.4 kcal/mol
  ΔH: 0.4 kcal/mol
Cytochrome c [1]; low ionic strength 25 mM, second listed of two independent sites, 10 mM sodium phosphate pH 7.4, 400 µM reduced Cc into 50 µM ANP32A
  Kd: 34 µM
Cytochrome c [1]; [5]
  n (reaction stoichiometry): 0.65
  ΔG: -6.1 kcal/mol
Cytochrome c [1]; low ionic strength (25 mM)
  binding to Cc by ITC, in words: two molecules of Cc bind the ANP32A LCAR at independent binding sites, with no observed cooperativity
Cytochrome c [1]; [6]
  n (reaction stoichiometry): 0.60
  ΔG: -6.1 kcal/mol
  Kd: 32 µM
Cytochrome c [1]; [7]
  ΔH: 1.5 kcal/mol
  –TΔS: -7.6 kcal/mol
Cytochrome c [1]; moderate ionic strength (100 mM)
  binding to Cc by ITC, in words: one of the two binding sites was lost
Histone H3
  coimmunoprecipitation of histone H3, in words: H3 binds both ANP32 proteins in a similar manner

## CC[C@@]1(O)C(=O)OCc2c1cc1n(c2=O)Cc2cc3ccccc3nc2-1 [camptothecin]
[2]
  Cc-GFP localization after camptothecin, in words: Cc‐GFP translocated into the cell nucleus

## EEERGQKRKRETEDEGEDDD [ANP32A230‐249 P241T]
Cytochrome c [3]
  Kd: 190 µM

## EEERGEKRKRETEDEGEDDD [ANP32A230‐249 Q235E/P241T]
Cytochrome c [3]
  Kd: 190 µM

From publication PMC11948038, “Evolutionary Pro‐To‐Thr Mutation in the Intrinsically Disordered Domain of ANP32 Family Members Modulates Their Target Binding Modes” (Advanced Science, 2025)
